Patent publication US20100036095A1

Molecular target: C8/C9 (complement components C8 and C9 of normal human serum, in the assembling membrane attack complex) (human), P07357
Assay: cell-based or functional assay

C8/C9 (complement components C8 and C9 of normal human serum, in the assembling membrane attack complex) (human), P07357, sequence (P07357 31-584 limits assumed, chain 1 of 4): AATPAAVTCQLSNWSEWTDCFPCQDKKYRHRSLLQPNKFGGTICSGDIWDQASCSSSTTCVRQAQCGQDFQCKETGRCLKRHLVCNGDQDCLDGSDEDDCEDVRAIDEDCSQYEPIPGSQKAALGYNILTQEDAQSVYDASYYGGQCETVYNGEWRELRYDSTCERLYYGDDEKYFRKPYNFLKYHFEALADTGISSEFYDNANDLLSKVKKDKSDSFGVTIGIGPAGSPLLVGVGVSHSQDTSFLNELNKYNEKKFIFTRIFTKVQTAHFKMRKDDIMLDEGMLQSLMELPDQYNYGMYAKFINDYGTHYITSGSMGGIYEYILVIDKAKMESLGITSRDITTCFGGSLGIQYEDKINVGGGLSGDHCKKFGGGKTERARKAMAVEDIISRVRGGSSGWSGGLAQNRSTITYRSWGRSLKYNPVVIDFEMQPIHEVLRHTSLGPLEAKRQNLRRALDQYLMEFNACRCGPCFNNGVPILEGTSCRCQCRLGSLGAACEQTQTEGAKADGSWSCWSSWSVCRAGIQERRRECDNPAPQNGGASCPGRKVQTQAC
C8/C9 (complement components C8 and C9 of normal human serum, in the assembling membrane attack complex) (human), P07357, sequence (P07358 55-591 limits assumed, chain 2 of 4, further chain): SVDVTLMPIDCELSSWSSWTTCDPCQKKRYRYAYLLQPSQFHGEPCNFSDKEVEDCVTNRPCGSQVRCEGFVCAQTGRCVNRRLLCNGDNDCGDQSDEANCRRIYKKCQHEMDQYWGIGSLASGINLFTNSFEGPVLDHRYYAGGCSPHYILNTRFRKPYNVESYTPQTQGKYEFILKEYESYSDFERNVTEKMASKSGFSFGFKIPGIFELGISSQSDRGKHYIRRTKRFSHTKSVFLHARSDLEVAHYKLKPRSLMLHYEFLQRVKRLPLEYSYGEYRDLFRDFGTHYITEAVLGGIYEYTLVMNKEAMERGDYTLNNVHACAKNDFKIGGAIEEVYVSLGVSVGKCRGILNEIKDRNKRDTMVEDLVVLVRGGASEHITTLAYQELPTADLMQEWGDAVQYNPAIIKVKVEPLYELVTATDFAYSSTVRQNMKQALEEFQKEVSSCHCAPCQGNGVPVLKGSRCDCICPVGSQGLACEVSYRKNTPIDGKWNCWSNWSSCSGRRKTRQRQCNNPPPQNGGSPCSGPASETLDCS
C8/C9 (complement components C8 and C9 of normal human serum, in the assembling membrane attack complex) (human), P07357, sequence (P07360 21-202 limits assumed, chain 3 of 4, further chain): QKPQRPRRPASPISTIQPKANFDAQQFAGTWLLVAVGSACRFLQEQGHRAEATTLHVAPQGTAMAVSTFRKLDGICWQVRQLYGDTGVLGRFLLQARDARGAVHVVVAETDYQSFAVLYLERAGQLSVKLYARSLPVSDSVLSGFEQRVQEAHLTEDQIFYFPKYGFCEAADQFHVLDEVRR
C8/C9 (complement components C8 and C9 of normal human serum, in the assembling membrane attack complex) (human), P07357, sequence (P02748 22-559 limits assumed, chain 4 of 4, further chain): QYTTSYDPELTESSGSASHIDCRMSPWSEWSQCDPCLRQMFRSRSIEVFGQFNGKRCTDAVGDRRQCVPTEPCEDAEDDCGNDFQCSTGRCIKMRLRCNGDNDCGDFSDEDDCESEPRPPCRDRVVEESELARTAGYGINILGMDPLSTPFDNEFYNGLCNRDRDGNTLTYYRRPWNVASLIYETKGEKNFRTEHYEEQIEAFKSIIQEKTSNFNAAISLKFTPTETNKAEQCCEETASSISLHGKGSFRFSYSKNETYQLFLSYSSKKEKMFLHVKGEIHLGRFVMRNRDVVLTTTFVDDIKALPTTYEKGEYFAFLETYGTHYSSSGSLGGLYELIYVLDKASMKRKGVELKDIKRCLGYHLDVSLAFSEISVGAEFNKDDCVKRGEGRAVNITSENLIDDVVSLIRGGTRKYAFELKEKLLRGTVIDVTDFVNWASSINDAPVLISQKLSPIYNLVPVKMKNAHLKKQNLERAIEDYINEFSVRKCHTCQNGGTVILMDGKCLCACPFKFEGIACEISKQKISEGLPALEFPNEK

B1: CR2-CD59 fusion protein containing CD59 T51A/S20A (protein)
chain: ISCGSPPPILNGRISYYSTPIAVGTVIRYSCSGTFRLIGEKSLLCITKDKVDGTWDKPAPKCEYFNKYSSCPEPIVPGGYKIRGSTPYRHGDSVTFACKTNFSMNGNKSVWCQANNMWGPTRLPTCVSVFPLECPALPMIHNGHHTSENVGSIAPGLSVTYSCESGYLLVGEKIINCLSSGKWSAVPPTCEEARCKSLGRFPNGKVKEPPILRVGVTANFFCDEGYRLQGPPSSRCVIAGQGVAWTKMPVCSGGGGSLQCYNCPNPTADCKTAVNCSADFDACLITKAGLQVYNKCWKFEHCNFNDVATRLRENELTYYCCKKDLCNFNEQLEN
Q: B1 was tested. Which inhibition of complement-mediated lysis of sensitized CHO cells by soluble protein in normal human serum (fold of wt CR2-CD59) did it give?
A: 3
